From patent publication US20230135723A1, “ANTI-CD98 ANTIBODIES AND ANTIBODY DRUG CONJUGATES” (AbbVie Inc., priority 2016, published 2023) come the findings set out here.

Marks after values point to notes of the source that are not given here.

Series [1] relates to EBC-1 (human lung squamous cell carcinoma) xenograft. The series is described as follows: EBC-1 xenograft tumor growth inhibition. Type of series: in vivo. As to conditions: 10 mg/kg/day IP QDx1, SCID-bg mice.
The nature of series [2]: Percent aggregates of ADC by size exclusion chromatography. It is filed as physicochemical. As to conditions: chAb3-CZ DAR2, DAR4 and broad DAR species (Table 12). The text has this:
Procedures for DAR and percent aggregate determination are described above in Example 5.

B1: ChAb3- CZ-DAR2 (conjugate)
VH: EVKLVESGGGLVQPGNSLRLSCATSGFTFIDYYMSWVRQSPGKALEWLGFIRNKANGYTTEYSASVKGRFTISRDNSQSILYLQMDTLRAEDSATYYCTRDRPAWFVYWGQGTLVTVSA
VL: DIVMSQSPSSLAVSVGEKVTMSCKSSQSLLYSSNQKNYLAWYQQKPGQSPKLLIYWASTRESGVPDRFTGSGSGTDFTLTFSSVRAEDLAVYYCQQYYSYPYTFGGGTKLEIK
Turning to B1, in series [1], the “Growth Inhibition TGD (%)” value is given as 32* %, the “Growth Inhibition TGImax (%)” value was 55* %, the “Response Frequency CR (%)” value was 0% and the “Response Frequency OR (%)” value is 0%. For the same molecule, the “Response Frequency PR (%)” value in series [1] is 0%. Besides, the “% Aggregates by SEC” value in series [2] is recorded as 0.5%.

B2: ChAb3- CZ-Broad DAR (conjugate)
VH: B1 VH
VL: B1 VL
Take B2: the “% Aggregates by SEC” value in series [2] was 12.2%.
